# Legend:
# Br2DNiR = molecular target: T1, Br2DNiR (Bradyrhizobium sp. ORS 375, UniProt H0SLX7); experiment: X-ray crystal structure (MSOX, nitrite-soaked crystal, DS1 […] Å); type: binding; settings: 200 mM NaNO2 soak, pH 5.5, 100 K; side-on at type-2 Cu, full occupancy
# T1 construct: gene nirK; two-domain enzyme, recombinant in E. coli with 6xHis tag cleaved by TEV; Cu-loaded T1 and T2 sites; CuNiR homotrimer, site at interface of two monomers
# T1 sequence (H0SLX7 25-364): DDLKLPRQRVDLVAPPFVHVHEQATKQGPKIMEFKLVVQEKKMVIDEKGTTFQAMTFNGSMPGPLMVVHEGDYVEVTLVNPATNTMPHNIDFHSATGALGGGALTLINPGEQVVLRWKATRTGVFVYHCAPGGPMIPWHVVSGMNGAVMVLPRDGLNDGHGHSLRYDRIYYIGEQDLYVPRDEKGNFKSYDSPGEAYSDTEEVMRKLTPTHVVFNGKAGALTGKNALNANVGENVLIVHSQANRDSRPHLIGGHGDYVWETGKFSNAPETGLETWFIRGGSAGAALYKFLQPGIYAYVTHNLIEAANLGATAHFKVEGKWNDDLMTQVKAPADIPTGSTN
# O=NO = experiment: purified protein; settings: conditions in supplement only
molecule,measurement,setting,value
O=NO [nitrite],"X-ray crystal structure (MSOX, nitrite-soaked crystal, DS1 1.19 Å)",Br2DNiR,full occupancy nitrite is seen bound to fully occupied T2Cu in a “side-on” orientation
Br2DNiR (Bradyrhizobium sp. ORS 375),Km,O=NO,7.4 ± 1.2 µM
same,kcat,O=NO,9 ± 0.5 s⁻¹

# From PMC9335323, “Single crystal spectroscopy and multiple structures from one crystal (MSOX) define catalysis in copper nitrite reductases” (Proceedings of the National Academy of Sciences of the …, 2022)
